In test [1] the target is T1, BKV serotype IV (ST4) virus-like particles (VLPs) (BK virus serotype IV, UniProt P14996 1-362).
T1 construct: VLP made by expressing VP1 in Sf9 insect cells and composed of 72 VP1 pentamers; also called BKV ST4 VLP; BKV ST4
As to the kind of experiment: solution equilibration titration (SET) with BKV VLPs.

For test [2], the target named is T2, BKV serotype I (ST1) virus-like particles (VLPs) (BK virus serotype I, UniProt P03088 1-362).
T2 construct: VLP made by expressing VP1 in Sf9 insect cells and composed of 72 VP1 pentamers; also called BKV ST1 VLP; BKV ST1
T2 chain: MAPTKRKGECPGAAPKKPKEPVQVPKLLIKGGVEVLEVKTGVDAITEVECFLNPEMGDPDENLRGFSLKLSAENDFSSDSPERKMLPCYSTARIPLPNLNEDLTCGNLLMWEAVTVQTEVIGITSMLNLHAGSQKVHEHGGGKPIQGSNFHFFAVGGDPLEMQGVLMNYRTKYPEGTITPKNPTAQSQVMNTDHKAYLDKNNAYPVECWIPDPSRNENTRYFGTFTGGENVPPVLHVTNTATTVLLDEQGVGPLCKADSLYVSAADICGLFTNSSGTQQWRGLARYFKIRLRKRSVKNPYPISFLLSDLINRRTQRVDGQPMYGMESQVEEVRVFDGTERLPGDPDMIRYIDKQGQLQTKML
As to the kind of experiment: solution equilibration titration (SET), antibody 1 pM, BKV VLPs in solution, MSD read-out.

The next test addresses JC virus (JCV) (JC virus, UniProt P03089 1-354). The test is described as follows: cell-based or functional assay.
The target in test [3] is T1, BKV serotype IV (ST4) virus-like …. As to the kind of experiment: ELISA on plates coated with BKV ST1 or ST4 VLPs (100 ng/well). (In general: An ELISA detects its analyte on a solid surface through an enzyme-linked reagent.)
Protocol: The binding of antibodies to VLPs were analyzed by ELISA. Briefly, Nunc MaxiSorp 384-well plates (Thermo Scientific) were coated with 100 ng/well BKV VLPs to BK serotype I (ST1) or serotype IV (ST4) overnight. Antibodies were serially diluted in PBS with 0.5% BSA and allowed to bind antigen-coated plates for 2 hours. […] Plates were washed with PBS and tetramethylbenzidine (TMB) microwell peroxidase substrate (SeramunBlau Fast, Seramun, Germany) was used to develop the reactions.

B1: NOV581 (antibody, V domains shown)
VH: QVQLVESGGGLVQPGGSLRLSCVASGFTFSGYNMHWVRQAPGKGLEWVSYISNSGRTIYYADSVKGRFTLSRDNAKNSLYLQMNSLRAEDTAVYFCARDRDPQWLGNDALQIWGQGTMVTVSS
VL: EIVLTQSPGTLSLSPGERATLSCRASQSVSSGYLAWYQQKPGQAPRLLIYGASSRATGIPDRFSGSGSGTDFTLTISRLEPEDFAVYYCQQYGTSRKTFGQGTKVEIKR
notes: also called antibody NOV581; clone NOV581
B1: the binding result in test [1] is given as “no binding”. The Kd in test [2] was below 0.05 nM.

B2: NOV530 (antibody, V domains shown)
VH: QVQLQESGPGLVKPSQTLSLTCTVSGGSISGGGYYWSWIRQHPGKGLEFIGYIYYNRGTYYNPALKSRLTISVDTSKNDFSLKLSSVSAADTAVYYCARCVLGGYGSDAFDRWGQGTTVTVAS
VL: EIVLTQSPVTLSLSPGERAILSCRASQSVSSHLAWYQQKPGQAPRLLIYDASSRANGIPARFSGSGSGTDFTLTISSLAPEDFAVYYCQQRSSWPPSLTFGGGTKVEIRR
notes: also called antibody NOV530; cross-neutralizing IgG NOV530
In the case of B2, the “EC50 of virus neutralization” value with JC virus (JCV) was below 1 nM. Besides, the Kd in test [2] was below 0.05 nM.

B3: NOV638 (antibody, V domains shown)
VH: QVQLVQSGAEVKKPGASVKVSCKASGYTFTSYDIIWVRQATGQGLEWMGRMNPTGGNTDYVPKFQGRVTMTRDISLSTAYMELRSLTSEDTAVFYCARGVKSLGVSEIDYWGQGTLVTVSS
VL: QSALTQPPSVSAAPGQKVTISCSGSTSNIANNYVLWYQQLPGTAPKLLIYDNNKRPSGIPDRFSGSKSGTSATLGITGLQTADEADYYCGTWDNSLSVGVFGGGTKLTVLG
notes: also called antibody NOV638
For the molecule B3, the binding result in test [3] was “no binding”.

A word on the Kd: it is a measure of binding affinity in units of concentration.

Source of the values: patent US20200384109A1 (Novartis, published 2020).
